In patent publication US7279548 (CYTOGEN, dated 2007):
No end group written: not given here. *: point of attachment. Biotin = O=C1N[C@H]2[C@H](CS[C@H]2CCCCC(=O)*)N1

biological target: T1, WWP2.4 WW domain expressed as GST fusion protein (human); test: cross affinity mapping, GST-WW fusion
T1 construct: Whole WWP2 entry named; also called WW2.4; not shown: glutathione S-transferase (GST) fusion partner
T1 sequence (chain, as listed by the source): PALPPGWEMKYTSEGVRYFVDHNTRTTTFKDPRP

| binding result | Binder |
| --- | --- |
| no binding | Biotin-PGTPPPNHDSLRL [ENaCβ-Y618H peptide] |
| no binding | NRLDLPPAETFED (also: biotinylated, Short peptide) |
| no binding | NRLDLPPAKSYEQ (also: biotinylated, Short peptide) |
| no binding | Biotin-PGTPPLNYDSLRL [ENaCβ-P616L peptide] |

biological target: T2, WWP2.3 WW domain expressed as GST fusion protein (human); test: cross affinity mapping, GST-WW fusion
T2 construct: Whole WWP2 entry named; not shown: glutathione S-transferase (GST) fusion partner
T2 sequence (chain, as listed by the source): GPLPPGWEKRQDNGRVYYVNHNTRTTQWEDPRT

| binding result | Binder |
| --- | --- |
| no binding | Biotin-PGTPPPNHDSLRL [ENaCβ-Y618H peptide] |
| no binding | NRLDLPPAETFED (also: biotinylated, Short peptide) |
| no binding | NRLDLPPAKSYEQ (also: biotinylated, Short peptide) |
| no binding | Biotin-PGTPPLNYDSLRL [ENaCβ-P616L peptide] |

biological target: T3, WWP2.1 WW domain expressed as GST fusion protein (human); test: cross affinity mapping, GST-WW fusion
T3 construct: Whole WWP2 entry named; not shown: glutathione S-transferase (GST) fusion partner
T3 sequence (chain, as listed by the source): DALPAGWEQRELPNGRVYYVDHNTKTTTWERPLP

| binding result | Binder |
| --- | --- |
| no binding | Biotin-PGTPPPNHDSLRL [ENaCβ-Y618H peptide] |
| no binding | NRLDLPPAETFED (also: biotinylated, Short peptide) |
| no binding | NRLDLPPAKSYEQ (also: biotinylated, Short peptide) |
| no binding | Biotin-PGTPPLNYDSLRL [ENaCβ-P616L peptide] |

biological target: T4, WWP1.2 WW domain expressed as GST fusion protein (human); test: cross affinity mapping, GST-WW fusion
T4 construct: Whole WWP1 entry named; not shown: glutathione S-transferase (GST) fusion partner
T4 sequence (chain, as listed by the source): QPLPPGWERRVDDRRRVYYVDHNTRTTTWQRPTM

| binding result | Binder |
| --- | --- |
| no binding | Biotin-PGTPPPNHDSLRL [ENaCβ-Y618H peptide] |
| no binding | NRLDLPPAETFED (also: biotinylated, Short peptide) |
| no binding | NRLDLPPAKSYEQ (also: biotinylated, Short peptide) |
| no binding | Biotin-PGTPPLNYDSLRL [ENaCβ-P616L peptide] |

biological target: T5, WWP1.3 WW domain expressed as GST fusion protein (human); test: cross affinity mapping, GST-WW fusion
T5 construct: Label WWP1.3 follows the pattern of the printed labels; whole WWP1 entry named; not shown: glutathione S-transferase (GST) fusion partner
T5 sequence (chain, as listed by the source): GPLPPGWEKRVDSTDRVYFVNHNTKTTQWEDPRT

| binding result | Binder |
| --- | --- |
| no binding | Biotin-PGTPPPNHDSLRL [ENaCβ-Y618H peptide] |
| no binding | NRLDLPPAETFED (also: biotinylated, Short peptide) |
| no binding | NRLDLPPAKSYEQ (also: biotinylated, Short peptide) |
| no binding | Biotin-PGTPPLNYDSLRL [ENaCβ-P616L peptide] |

biological target: T6, WWP2.2 WW domain expressed as GST fusion protein (human); test: cross affinity mapping, GST-WW fusion
T6 construct: Whole WWP2 entry named; not shown: glutathione S-transferase (GST) fusion partner
T6 sequence (chain, as listed by the source): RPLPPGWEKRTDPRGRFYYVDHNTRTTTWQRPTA

| binding result | Binder |
| --- | --- |
| no binding | Biotin-PGTPPPNHDSLRL [ENaCβ-Y618H peptide] |
| no binding | NRLDLPPAETFED (also: biotinylated, Short peptide) |
| no binding | NRLDLPPAKSYEQ (also: biotinylated, Short peptide) |
| no binding | Biotin-PGTPPLNYDSLRL [ENaCβ-P616L peptide] |

biological target: T7, WWP1.1 WW domain expressed as GST fusion protein (human); test: cross affinity mapping, GST-WW fusion
T7 construct: Whole WWP1 entry named; not shown: glutathione S-transferase (GST) fusion partner
T7 sequence (chain, as listed by the source): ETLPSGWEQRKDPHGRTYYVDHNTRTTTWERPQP

| binding result | Binder |
| --- | --- |
| no binding | Biotin-PGTPPPNHDSLRL [ENaCβ-Y618H peptide] |
| no binding | NRLDLPPAETFED (also: biotinylated, Short peptide) |
| no binding | NRLDLPPAKSYEQ (also: biotinylated, Short peptide) |
| no binding | Biotin-PGTPPLNYDSLRL [ENaCβ-P616L peptide] |

biological target: T8, WWP1.4 WW domain expressed as GST fusion protein (human); test: cross affinity mapping, GST-WW fusion
T8 construct: Whole WWP1 entry named; not shown: glutathione S-transferase (GST) fusion partner

| binding result | Binder |
| --- | --- |
| no binding | Biotin-PGTPPPNHDSLRL [ENaCβ-Y618H peptide] |
| no binding | NRLDLPPAETFED (also: biotinylated, Short peptide) |
| no binding | NRLDLPPAKSYEQ (also: biotinylated, Short peptide) |
| no binding | Biotin-PGTPPLNYDSLRL [ENaCβ-P616L peptide] |

biological target: T1, WWP2.4 WW domain expressed as GST …; test: ELISA cross affinity mapping, GST-WW fusion
Procedure: (§1) Briefly, microtiter wells were coated with 1–5 μg of fusion protein in 100 mM NaHCO_3, blocked with Super-Block TBS (Pierce) and washed four times with PBS, 0.05% Tween 20. Specific peptide-streptavidin/alkaline phosphatase complexes were added as above and unbound complexes washed five times with PBS, 0.05% Tween 20. Following addition of PNP substrate (p-nitrophenyl phosphate, Kirkegard & Perry Labs), peptide binding was quantitated after 30 min. at O.D. 405 nm. Relative binding measurements from three independent determinations were assigned to a scale as follows: O.D. units 0–0.5=(−), 0.5–1.0=(+), 1.0–2.0=(++), 2.0–3.0=(+++), >3.0=(++++).

| binding result | Binder |
| --- | --- |
| no binding | Biotin-SGSGYVQPPPAPYPGPM [WBP-2A-Pro4 (alanine substitution of the third proline of the PPPPY motif of WBP-2A)] |
| no binding | Biotin-SGSGPGTPYPPPPEFY (Tested as SA-AP complex) [WBP-2B peptide (biotin-SGSGPGTPYPPPPEFY)] |
| no binding | Biotin-SGSGPGTPPAPYTVGPGY (not fully specified) [WBP-1-Pro3 (alanine substitution at the third proline position of the PPPPY motif of WBP-1)] |

biological target: T2, WWP2.3 WW domain expressed as GST …; test: ELISA cross affinity mapping, GST-WW fusion
Procedure: as §1

| binding result | Binder |
| --- | --- |
| no binding | Biotin-SGSGYVQPPPAPYPGPM [WBP-2A-Pro4 (alanine substitution of the third proline of the PPPPY motif of WBP-2A)] |
| no binding | Biotin-SGSGPGTPYPPPPEFY (Tested as SA-AP complex) [WBP-2B peptide (biotin-SGSGPGTPYPPPPEFY)] |
| no binding | Biotin-SGSGPGTPPAPYTVGPGY (not fully specified) [WBP-1-Pro3 (alanine substitution at the third proline position of the PPPPY motif of WBP-1)] |

biological target: T3, WWP2.1 WW domain expressed as GST …; test: ELISA cross affinity mapping, GST-WW fusion
Procedure: as §1

| binding result | Binder |
| --- | --- |
| no binding | Biotin-SGSGYVQPPPAPYPGPM [WBP-2A-Pro4 (alanine substitution of the third proline of the PPPPY motif of WBP-2A)] |
| no binding | Biotin-SGSGPGTPYPPPPEFY (Tested as SA-AP complex) [WBP-2B peptide (biotin-SGSGPGTPYPPPPEFY)] |
| no binding | Biotin-SGSGPGTPPAPYTVGPGY (not fully specified) [WBP-1-Pro3 (alanine substitution at the third proline position of the PPPPY motif of WBP-1)] |

biological target: T4, WWP1.2 WW domain expressed as GST …; test: ELISA cross affinity mapping, GST-WW fusion
Procedure: as §1

| binding result | Binder |
| --- | --- |
| no binding | Biotin-SGSGYVQPPPAPYPGPM [WBP-2A-Pro4 (alanine substitution of the third proline of the PPPPY motif of WBP-2A)] |
| no binding | Biotin-SGSGPGTPYPPPPEFY (Tested as SA-AP complex) [WBP-2B peptide (biotin-SGSGPGTPYPPPPEFY)] |
| no binding | Biotin-SGSGPGTPPAPYTVGPGY (not fully specified) [WBP-1-Pro3 (alanine substitution at the third proline position of the PPPPY motif of WBP-1)] |

biological target: T5, WWP1.3 WW domain expressed as GST …; test: ELISA cross affinity mapping, GST-WW fusion
Procedure: as §1

| binding result | Binder |
| --- | --- |
| no binding | Biotin-SGSGYVQPPPAPYPGPM [WBP-2A-Pro4 (alanine substitution of the third proline of the PPPPY motif of WBP-2A)] |
| no binding | Biotin-SGSGPGTPYPPPPEFY (Tested as SA-AP complex) [WBP-2B peptide (biotin-SGSGPGTPYPPPPEFY)] |
| no binding | Biotin-SGSGPGTPPAPYTVGPGY (not fully specified) [WBP-1-Pro3 (alanine substitution at the third proline position of the PPPPY motif of WBP-1)] |

biological target: T9, WWP3 WW domain expressed as GST fusion protein (human); test: ELISA cross affinity mapping, GST-WW fusion
T9 construct: Whole WWP3 entry named; not shown: glutathione S-transferase (GST) fusion partner
T9 sequence (chain, as listed by the source): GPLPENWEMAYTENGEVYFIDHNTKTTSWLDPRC

| binding result | Binder |
| --- | --- |
| no binding | Biotin-SGSGPGTPYPPPPEFY (Tested as SA-AP complex) [WBP-2B peptide (biotin-SGSGPGTPYPPPPEFY)] |
| no binding | Biotin-SGSGPGTPPPPYTVGPGY (Tested as streptavidin-enzyme complex) [WBP-1 peptide (biotin-SGSGPGTPPPPYTVGPGY)] |

The remaining lines, values behind:

| Binder | binding result |
| --- | --- |
| Biotin-SGSGYVQPPPPPYPGPM (Tested as SA-AP complex) [WBP-2A peptide (biotin-SGSGYVQPPPPPYPGPM)] | binds |
| Biotin-SGSGYVQPPPAPYPGPM [WBP-2A-Pro4 (alanine substitution of the third proline of the PPPPY motif of WBP-2A)] | no binding |

biological target: T6, WWP2.2 WW domain expressed as GST …; test: ELISA cross affinity mapping, GST-WW fusion
Procedure: as §1

| binding result | Binder |
| --- | --- |
| no binding | Biotin-SGSGYVQPPPAPYPGPM [WBP-2A-Pro4 (alanine substitution of the third proline of the PPPPY motif of WBP-2A)] |
| no binding | Biotin-SGSGPGTPYPPPPEFY (Tested as SA-AP complex) [WBP-2B peptide (biotin-SGSGPGTPYPPPPEFY)] |
| no binding | Biotin-SGSGPGTPPAPYTVGPGY (not fully specified) [WBP-1-Pro3 (alanine substitution at the third proline position of the PPPPY motif of WBP-1)] |

biological target: T7, WWP1.1 WW domain expressed as GST …; test: ELISA cross affinity mapping, GST-WW fusion
Procedure: as §1

| binding result | Binder |
| --- | --- |
| no binding | Biotin-SGSGYVQPPPAPYPGPM [WBP-2A-Pro4 (alanine substitution of the third proline of the PPPPY motif of WBP-2A)] |
| no binding | Biotin-SGSGPGTPYPPPPEFY (Tested as SA-AP complex) [WBP-2B peptide (biotin-SGSGPGTPYPPPPEFY)] |
| no binding | Biotin-SGSGPGTPPAPYTVGPGY (not fully specified) [WBP-1-Pro3 (alanine substitution at the third proline position of the PPPPY motif of WBP-1)] |

biological target: T8, WWP1.4 WW domain expressed as GST …; test: ELISA cross affinity mapping, GST-WW fusion
Procedure: as §1

| binding result | Binder |
| --- | --- |
| no binding | Biotin-SGSGYVQPPPAPYPGPM [WBP-2A-Pro4 (alanine substitution of the third proline of the PPPPY motif of WBP-2A)] |
| no binding | Biotin-SGSGPGTPYPPPPEFY (Tested as SA-AP complex) [WBP-2B peptide (biotin-SGSGPGTPYPPPPEFY)] |
| no binding | Biotin-SGSGPGTPPAPYTVGPGY (not fully specified) [WBP-1-Pro3 (alanine substitution at the third proline position of the PPPPY motif of WBP-1)] |
